# Measurements published in the RNAGym collection of RNA variant scans (doi:10.1093/molbev/msab373).
# B1: Azoarcus group I ribozyme (parent)
# chain: GUGCCUUGCGCCGGGAAACCACGCAAGGGAUGGUGUCAAAUUCGGCGAAACCUAAGCGCCCGCCCGGGCGUAUGGCAACGCCGAGCCAAGCUUCGGCGCCUGCGCCGAUGAAGGUGUAGAGACUAGACGGCACCCACCUAAGGCAAACGCUAUGGUGAAGGCAUAGUCCAGGGAGUGGCGAAAGUCACACAAACCGG
# Variants of: B1
# Experiment: reverse-splicing fitness (ratio to wild type); higher = more active; in vitro selection; Mg2+ level not given
# In short: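 An in vitro group I ribozyme library with randomized positions was T7-transcribed and gel-purified. In triplicate, 10 pmol RNA in EPPS pH 7.5 was reacted with 50 pmoles of a 30-nt RNA substrate for 1 h at 37 °C across several added MgCl2 levels (1–48 mM), then stopped with EDTA. Products were reverse transcribed from a substrate-complementary primer, PCR-amplified and sequenced (HiSeq 4000). Fitness is a variant's read proportion after selection over that before, normalised to wild type.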
row,Variant,reverse-splicing fitness
1,C82A A111C C150U C169G U176G,0.00899
2,C82A A111C C150U C169U,0.0128
3,C82A A111C C150U C169U U176A,0.0165
4,C82A A111C C150U C169U U176C,0.0147
5,C82A A111C C150U C169U U176G,0.00804
6,C82A A111C C150U U176A,0.036
7,C82A A111C C150U U176C,0.0554
8,C82A A111C C150U U176G,0.0134
9,C82A A111C C169A,0.00822
10,C82A A111C C169A U176A,0.0171
11,C82A A111C C169A U176C,0.0237
12,C82A A111C C169A U176G,0.00874
13,C82A A111C C169G,0.00911
14,C82A A111C C169G U176A,0.0177
15,C82A A111C C169G U176C,0.0237
16,C82A A111C C169G U176G,0.00734
17,C82A A111C C169U,0.0139
18,C82A A111C C169U U176A,0.0162
19,C82A A111C C169U U176C,0.0187
20,C82A A111C C169U U176G,0.00856
21,C82A A111C U176A,0.0824

row,Variant,reverse-splicing fitness
1,C82A A111C U176C,0.102
2,C82A A111C U176G,0.0172
3,C82A A111G,0.435
4,C82A A111G A120C,0.0449
5,C82A A111G A120C A145C,0.0362
6,C82A A111G A120C A145C C150A,0.00953
7,C82A A111G A120C A145C C150A C169A,0.00989
8,C82A A111G A120C A145C C150A C169A U176A,0.0178
9,C82A A111G A120C A145C C150A C169A U176C,0.0105
10,C82A A111G A120C A145C C150A C169A U176G,0.00558
11,C82A A111G A120C A145C C150A C169G,0.00832
12,C82A A111G A120C A145C C150A C169G U176A,0.0288
13,C82A A111G A120C A145C C150A C169G U176C,0.025
14,C82A A111G A120C A145C C150A C169G U176G,0.00763
15,C82A A111G A120C A145C C150A C169U,0.00853
16,C82A A111G A120C A145C C150A C169U U176A,0.0138
17,C82A A111G A120C A145C C150A C169U U176C,0.011
18,C82A A111G A120C A145C C150A C169U U176G,0.00607
19,C82A A111G A120C A145C C150A U176A,0.0102
20,C82A A111G A120C A145C C150A U176C,0.0151
21,C82A A111G A120C A145C C150A U176G,0.00529

row,Variant,reverse-splicing fitness
1,C82A A111G A120C A145C C150G,0.00968
2,C82A A111G A120C A145C C150G C169A,0.0102
3,C82A A111G A120C A145C C150G C169A U176A,0.00906
4,C82A A111G A120C A145C C150G C169A U176C,0.0108
5,C82A A111G A120C A145C C150G C169A U176G,0.00545
6,C82A A111G A120C A145C C150G C169G,0.00705
7,C82A A111G A120C A145C C150G C169G U176A,0.00979
8,C82A A111G A120C A145C C150G C169G U176C,0.00812
9,C82A A111G A120C A145C C150G C169G U176G,0.00568
10,C82A A111G A120C A145C C150G C169U,0.009
11,C82A A111G A120C A145C C150G C169U U176A,0.00566
12,C82A A111G A120C A145C C150G C169U U176C,0.00986
13,C82A A111G A120C A145C C150G C169U U176G,0.00527
14,C82A A111G A120C A145C C150G U176A,0.00522
15,C82A A111G A120C A145C C150G U176C,0.00712
16,C82A A111G A120C A145C C150G U176G,0.00265
17,C82A A111G A120C A145C C150U,0.0161
18,C82A A111G A120C A145C C150U C169A,0.00838
19,C82A A111G A120C A145C C150U C169A U176A,0.0199
20,C82A A111G A120C A145C C150U C169A U176C,0.00983
21,C82A A111G A120C A145C C150U C169A U176G,0.00704

row,Variant,reverse-splicing fitness
1,C82A A111G A120C A145C C150U C169G,0.00854
2,C82A A111G A120C A145C C150U C169G U176A,0.025
3,C82A A111G A120C A145C C150U C169G U176C,0.0213
4,C82A A111G A120C A145C C150U C169G U176G,0.00681
5,C82A A111G A120C A145C C150U C169U,0.0104
6,C82A A111G A120C A145C C150U C169U U176A,0.0132
7,C82A A111G A120C A145C C150U C169U U176C,0.0102
8,C82A A111G A120C A145C C150U C169U U176G,0.00597
9,C82A A111G A120C A145C C150U U176A,0.0118
10,C82A A111G A120C A145C C150U U176C,0.018
11,C82A A111G A120C A145C C150U U176G,0.00644
12,C82A A111G A120C A145C C169A,0.00673
13,C82A A111G A120C A145C C169A U176A,0.0162
14,C82A A111G A120C A145C C169A U176C,0.0109
15,C82A A111G A120C A145C C169A U176G,0.0053
16,C82A A111G A120C A145C C169G,0.00965
17,C82A A111G A120C A145C C169G U176A,0.0285
18,C82A A111G A120C A145C C169G U176C,0.0238
19,C82A A111G A120C A145C C169G U176G,0.00569
20,C82A A111G A120C A145C C169U,0.0116
